{"source": "patent US20240400693A1", "about": "(Chugai, published 2024)", "experiment_in_all_cases": "cell-based or functional assay", "key": {"[1]": {"biological_target": "HLA-DQ2.5 on IHW09023 cells loaded with gamma 4d gliadin peptide (human; wheat)"}, "[2]": {"biological_target": "HLA-DQ2.5 on IHW09023 cells loaded with gamma 2 gliadin peptide (human; wheat)"}, "[3]": {"biological_target": "HLA-DQ2.5 on IHW09023 cells loaded with omega1/2 gliadin peptide (human; wheat)"}, "[4]": {"biological_target": "HLA-DQ2.5 on IHW09023 cells loaded with gamma 4a gliadin peptide (human; wheat)"}, "[5]": {"biological_target": "HLA-DQ2.5 on IHW09023 cells loaded with gamma 3 gliadin peptide (human; wheat)"}, "[6]": {"biological_target": "HLA-DQ2.5 on IHW09023 cells loaded with 33mer gliadin peptide (human; wheat)"}, "[7]": {"biological_target": "HLA-DQ2.5 on IHW09023 cells loaded with gamma 1 gliadin peptide (human; wheat)"}, "[8]": {"biological_target": "HLA-DQ2.5 on IHW09023 cells loaded with BC hordein peptide (human; barley)"}}, "data": [{"binder": "DQN0344H0976/L0591//DQN0385H1270/L0681-F6 (bispecific antibody) heavy 1: QVQLVESGGGVVQPGGSLRLSCAASGFTFSSAYWMVWVRQAPGQGLEWMGAVYGGSDTTYYAKWTEGRFTISRDTSKNTLYLQMNSLRAEDTAVYYCAREPLNYYYYGELNLWGQGTLVTVSSASTKGPSVFPLAPSSKSTSGGTAALGCLVKDYFPEPVTVSWNSGALTSGVHTFPAVLKSSGLYSLSSVVTVPSSSLGTQTYICNVNHKPSNTKVDKRVEPKSCDKTHTCPPCPAPELRRGPSVFLFPPKPKDTLMISRTPEVTCVVVDVSHEDPEVKFNWYVDGVEVHNAKTKPREEQYNSTYRVVSVLTVLHQDWLNGKEYKCKVSNKALPAPIEKTISKAKGQPREPQVYTLPPSREEMTKNQVSLTCLVKGFYPSDIAVEWESNGQPENNYKTTPPYLDSDGSFFLYSKLTVDKSRWQEGNVFSCSVLHEALHAHYTREELSLSP light 1: DIQMTQSPSSLSASVGDRVTITCQATEEIYSGLAWYQQKPGKAPKLLIYYVSTLYEGIPARFSGSGSGTDFTLTISSLEPEDFAVYYCQTYEDVSAVTFGQGTKVEIKRTVAAPSVFIFPPSDEQLKSGTAEVVCLLNNFYPREAKVQWKVDNALQSGNSEESVTEQDSKDSTYSLSSTLTLSKADYEKHKVYACEVTHQGLSSPVTKSFNRGEC heavy 2: QVQLVESGGGVVQPGRSLRLSCAASGFTFSEWYFMSWVRQAPGKGLEWVASIDTGSGSIDYAEWVEGRFTISRDNSKNTLYLQMNSLRAEDTAVYYCARDIGIDYNFWGPGTLVTVSSASTKGPSVFPLAPSSKSTSGGTAALGCLVEDYFPEPVTVSWNSGALTSGVHTFPAVLESSGLYSLSSVVTVPSSSLGTKTYICNVNHKPSNTKVDKRVEPKSCDKTHTCPPCPAPELRRGPSVFLFPPKPKDTLMISRTPEVTCVVVDVSHEDPEVKFNWYVDGVEVHNAKTKPREEQYNSTYRVVSVLTVLHQDWLNGKEYKCKVSNKALPAPIEKTISKAKGQPREPQVYTLPPSRKEMTKNQVSLTCLVKGFYPSDIAVEWESNGQPENNYKTTPPYLDSDGSFFLYSKLTVDKSRWQQGNVFSCSVLHEALHAHYTRKELSLSP light 2: DIQMTQSPSSLSASVGDRVTITCQTTQSISSYLNWYQQKPGQPPKLLIYYASTKAEGIPARFSGSGLGTDFTLTISSLEPEDFAVYYCHYGISKVSFGQGTKVEIKRTVAAPSVFIFPPSDEQLKSGTAKVVCLLNNFYPREAKVQWKVDNALQSGNSKESVTEQDSKDSTYSLSSTLTLSKADYEKHKVYACEVTHQGLSSPVTKSFNRGEC", "values": [{"measurement": "IC50 (ng/mL), γ4d gliadin TCR, 100 µM γ4d gliadin", "setting": "[1]", "result": 11.8, "unit": "ng/mL"}, {"measurement": "IC50 (ng/mL), γ2 gliadin TCR, 250 nM γ2 gliadin", "setting": "[2]", "result": 182, "unit": "ng/mL"}, {"measurement": "IC50 (ng/mL), ω1 gliadin TCR, 25 µM ω1/2 gliadin", "setting": "[3]", "result": 2.07, "unit": "ng/mL"}, {"measurement": "IC50 (ng/mL), ω2 gliadin TCR, 250 nM ω1/2 gliadin", "setting": "[3]", "result": 0.26, "unit": "ng/mL"}, {"measurement": "IC50 (ng/mL), γ4a gliadin TCR, 25 µM γ4a gliadin", "setting": "[4]", "result": 749, "unit": "ng/mL"}, {"measurement": "IC50 (ng/mL), γ3 gliadin TCR, 100 µM γ3 gliadin", "setting": "[5]", "result": 2.4, "unit": "ng/mL"}, {"measurement": "IC50 (ng/mL), α1b gliadin TCR, 250 nM 33mer gliadin", "setting": "[6]", "result": 1.36, "unit": "ng/mL"}, {"measurement": "IC50 (ng/mL), α2 gliadin TCR, 250 nM 33mer gliadin", "setting": "[6]", "result": 0.34, "unit": "ng/mL"}, {"measurement": "IC50 (ng/mL), γ1 gliadin TCR, 250 nM γ1 gliadin", "setting": "[7]", "result": 1.05, "unit": "ng/mL"}, {"measurement": "IC50 (ng/mL), BC hordein TCR, 250 nM BC hordein", "setting": "[8]", "result": 12, "unit": "ng/mL"}]}, {"binder": "DQN0344H0976/L0591//DQN0385H1255/L0605-F6 (bispecific antibody) heavy 1: QVQLVESGGGVVQPGGSLRLSCAASGFTFSSAYWMVWVRQAPGQGLEWMGAVYGGSDTTYYAKWTEGRFTISRDTSKNTLYLQMNSLRAEDTAVYYCAREPLNYYYYGELNLWGQGTLVTVSSASTKGPSVFPLAPSSKSTSGGTAALGCLVKDYFPEPVTVSWNSGALTSGVHTFPAVLKSSGLYSLSSVVTVPSSSLGTQTYICNVNHKPSNTKVDKRVEPKSCDKTHTCPPCPAPELRRGPSVFLFPPKPKDTLMISRTPEVTCVVVDVSHEDPEVKFNWYVDGVEVHNAKTKPREEQYNSTYRVVSVLTVLHQDWLNGKEYKCKVSNKALPAPIEKTISKAKGQPREPQVYTLPPSREEMTKNQVSLTCLVKGFYPSDIAVEWESNGQPENNYKTTPPYLDSDGSFFLYSKLTVDKSRWQEGNVFSCSVLHEALHAHYTREELSLSP light 1: DIQMTQSPSSLSASVGDRVTITCQATEEIYSGLAWYQQKPGKAPKLLIYYVSTLYEGIPARFSGSGSGTDFTLTISSLEPEDFAVYYCQTYEDVSAVTFGQGTKVEIKRTVAAPSVFIFPPSDEQLKSGTAEVVCLLNNFYPREAKVQWKVDNALQSGNSEESVTEQDSKDSTYSLSSTLTLSKADYEKHKVYACEVTHQGLSSPVTKSFNRGEC heavy 2: QVQLVESGGGVVQPGRSLRLSCAASGFTFSEWYFMSWVRQAPGKGLEWVASIDTGSGSIDYAGWVEERFTISRDNSKNTLYLQMNSLRAEDTAVYYCARDIGIDYNFWGPGTLVTVSSASTKGPSVFPLAPSSKSTSGGTAALGCLVEDYFPEPVTVSWNSGALTSGVHTFPAVLESSGLYSLSSVVTVPSSSLGTKTYICNVNHKPSNTKVDKRVEPKSCDKTHTCPPCPAPELRRGPSVFLFPPKPKDTLMISRTPEVTCVVVDVSHEDPEVKFNWYVDGVEVHNAKTKPREEQYNSTYRVVSVLTVLHQDWLNGKEYKCKVSNKALPAPIEKTISKAKGQPREPQVYTLPPSRKEMTKNQVSLTCLVKGFYPSDIAVEWESNGQPENNYKTTPPYLDSDGSFFLYSKLTVDKSRWQQGNVFSCSVLHEALHAHYTRKELSLSP light 2: DIQMTQSPSSLSASVGDRVTITCQTTQSISSYLNWYQQKPGQPPKLLIYYASTKAEGIPARFSGSGSGTDFTLTISSLEPEDFAVYYCHYGISKVSFGQGTKVEIKRTVAAPSVFIFPPSDEQLKSGTAKVVCLLNNFYPREAKVQWKVDNALQSGNSKESVTEQDSKDSTYSLSSTLTLSKADYEKHKVYACEVTHQGLSSPVTKSFNRGEC", "values": [{"measurement": "IC50 (ng/mL), γ4d gliadin TCR, 100 µM γ4d gliadin", "setting": "[1]", "result": 12.4, "unit": "ng/mL"}, {"measurement": "IC50 (ng/mL), γ2 gliadin TCR, 250 nM γ2 gliadin", "setting": "[2]", "result": 440, "unit": "ng/mL"}, {"measurement": "IC50 (ng/mL), ω1 gliadin TCR, 25 µM ω1/2 gliadin", "setting": "[3]", "result": 2.62, "unit": "ng/mL"}, {"measurement": "IC50 (ng/mL), ω2 gliadin TCR, 250 nM ω1/2 gliadin", "setting": "[3]", "result": 0.25, "unit": "ng/mL"}, {"measurement": "IC50 (ng/mL), γ4a gliadin TCR, 25 µM γ4a gliadin", "setting": "[4]", "result": 1430, "unit": "ng/mL"}, {"measurement": "IC50 (ng/mL), γ3 gliadin TCR, 100 µM γ3 gliadin", "setting": "[5]", "result": 2.31, "unit": "ng/mL"}, {"measurement": "IC50 (ng/mL), α1a gliadin TCR, 250 nM 33mer gliadin", "setting": "[6]", "result": 0.49, "unit": "ng/mL"}, {"measurement": "IC50 (ng/mL), α1b gliadin TCR, 250 nM 33mer gliadin", "setting": "[6]", "result": 2.66, "unit": "ng/mL"}, {"measurement": "IC50 (ng/mL), α2 gliadin TCR, 250 nM 33mer gliadin", "setting": "[6]", "result": 0.56, "unit": "ng/mL"}, {"measurement": "IC50 (ng/mL), γ1 gliadin TCR, 250 nM γ1 gliadin", "setting": "[7]", "result": 0.91, "unit": "ng/mL"}, {"measurement": "IC50 (ng/mL), BC hordein TCR, 250 nM BC hordein", "setting": "[8]", "result": 13.6, "unit": "ng/mL"}]}]}
